Measured values published in article PMC5030094, “Human DNA2 possesses a cryptic DNA unwinding activity that functionally integrates with BLM or WRN helicases”.

Target: T1, hDNA2 D277A (nuclease-deficient) (Homo sapiens, UniProt P51530 1-1060, D277A)
T1 sequence: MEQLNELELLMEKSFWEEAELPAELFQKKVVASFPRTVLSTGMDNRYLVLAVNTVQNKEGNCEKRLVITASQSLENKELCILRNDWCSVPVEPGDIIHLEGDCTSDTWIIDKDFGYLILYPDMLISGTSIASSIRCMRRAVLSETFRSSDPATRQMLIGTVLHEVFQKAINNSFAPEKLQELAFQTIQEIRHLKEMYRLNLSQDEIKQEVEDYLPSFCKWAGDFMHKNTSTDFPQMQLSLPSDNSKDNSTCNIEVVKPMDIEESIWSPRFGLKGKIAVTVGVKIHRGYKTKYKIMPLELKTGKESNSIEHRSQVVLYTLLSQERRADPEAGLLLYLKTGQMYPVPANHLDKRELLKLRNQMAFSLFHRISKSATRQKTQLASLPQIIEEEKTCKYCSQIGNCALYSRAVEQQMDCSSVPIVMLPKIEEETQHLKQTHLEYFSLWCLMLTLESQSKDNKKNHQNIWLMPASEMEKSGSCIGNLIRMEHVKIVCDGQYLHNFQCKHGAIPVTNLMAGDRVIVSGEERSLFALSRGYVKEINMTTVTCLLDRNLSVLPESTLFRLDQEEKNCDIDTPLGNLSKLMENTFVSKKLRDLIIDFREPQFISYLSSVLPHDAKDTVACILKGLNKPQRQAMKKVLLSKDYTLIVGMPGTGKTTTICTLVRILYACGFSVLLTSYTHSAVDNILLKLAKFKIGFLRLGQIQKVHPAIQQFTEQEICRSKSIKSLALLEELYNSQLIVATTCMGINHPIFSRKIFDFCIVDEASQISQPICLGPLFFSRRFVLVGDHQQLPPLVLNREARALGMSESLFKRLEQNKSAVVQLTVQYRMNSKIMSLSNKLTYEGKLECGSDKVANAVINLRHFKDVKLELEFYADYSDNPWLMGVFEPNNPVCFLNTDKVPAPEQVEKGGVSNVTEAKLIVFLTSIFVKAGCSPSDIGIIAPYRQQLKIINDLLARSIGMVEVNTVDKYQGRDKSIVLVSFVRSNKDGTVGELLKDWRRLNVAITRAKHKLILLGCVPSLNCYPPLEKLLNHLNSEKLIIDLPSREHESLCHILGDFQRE
Assay: EMSA; no RPA; 25 mM Tris-acetate pH 7.5, 2 mM Mg acetate, 1 mM DTT, 0.1 mg/ml BSA, 1 nM DNA, 37 C 30 min; 6% PAGE in TAE on ice
Details: protein: recombinant; tags: N-terminal 6xHis, C-terminal FLAG; label: 5' 32P; single strand

Binder: GACGTCATAGACGATTACATTGCTAGGACATGCTGTCTAGAGACTATCGC (ssDNA) [ssDNA 50 nt (X12-3)]
- Kd: ~2 nM
